Each sequence was assayed on K4 kissing-loop RNA reporter (assay: apparent KD of K4 kissing-loop reporter; higher = weaker reporter binding). Conditions: Eterna round: R107; input ligand: FMN 200 uM.
Protocol: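 RNA-MaP round R107: designed RNA switches with theophylline, tryptophan, arginine or FMN aptamers are transcribed on-chip within common flanks. They are titrated with a labelled K4 kissing-loop RNA reporter in RNA-MaP buffer (100 mM Tris pH 7.5, 80 mM KCl, 4 mM MgCl2), without ligand or with the indicated ligand. Median apparent KD per design.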
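Further: bound reporter read as fluorescence of individual clusters on recovered sequencing chips by microscopy, with normalized cluster intensities fitted with a binding model.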

Sequence	apparent KD of K4 kissing-loop reporter [nM]
AGGUUUUGAUUAGGAUAUGCACUGACGACGAGAAUAUAGUGAUGUUAUAUACUACGAAUUAGUAGAGUAGAAGGGAUUGAGGUUU [SSFMNB.Y]	344
AAGUGAUGUUGUAGUGAUGUUGUGAUGUUGCAGGAUAUAUAGUGAUGUAGAAGGGUAUGUACUUAUUUGUUUUUUGAGUUAUGUU [zzazzrmullin]	65.9
GUUUGCCGGUUCCGGAGUGAUGUUCCGGAUACCAGCAACUUCCUUUGCCCUUGGCAGCCGUAGCUAUACCGGAUGGCAGCUUCAG [Arrexean]	96.1
GCGCGUCAUGUCAGCGGUGACACUGUCGAUACCAGCGCCGGAAGGCGCCCUUGGCAGCGACGUGCUGGAGUGAUGUUCCAGCGUC [#2 Exclusion - Theophylline A Attempt #21 (HarryS)]	177
CACCAUGAAUUCUCUAGGAGUGAUGUUUUUCGAGGACCGGUACGGCCGCCACUCGGACGAGGACCCUGGGAGCGGCGAAGCGGCU [nigmullin]	235
AGUCCACUCUAAAGAGUGGACCUAAGGGAUACCAGUGAUGUUGGUCACCCUUGGCAGCCCGCUGUCAUCGAUAAAGAUGGCAGGA	133
GCCUAGGCUCGAAAGAGCCUAGGCUUGUCUCAGGAUAUCUGGAAACAGAGAAGGGAGCUACUAGUGAUGUUAGGAAUUCCCUAAG	149
CAUUCACGGCGAGUCGAAGUGAUGUUUCGGCGAGGACCGGUACGGCCGCCACUCGGAUAAAUAUAGCUUAUCACAUACACUUUCG [theeternabot_exclusion_KL_Trp_A_27]	159
AAAAUAAACCAGUGAUGUUGGUGUCCAGAUACCAGCGGUAAAAUCCGCCCUUGGCAGCUGUGGACGUACAAAAUAAGUACGUCCU [MatMod 4 - Jieux - Same State - Theophylline A]	430
AACCGUGUGGCGGCCGCCACUAGUCUCCAGUGAUGUUGGAGAGACCACGUAAGUGGUCUCCAACAUAGGACCGGGCCAUAUGGAA [Same State - Tryptophan B (Freestyle 26)]	204
AAGCAGUCAGGAUCGAAGAUCCUGCAAAACCGAGGACCGGUACGGCCGCCACUCGGAGUGAUGUUCCGAAGACUGCAAAAUAAAA [#SwitchBubble 6]	191
GACUCUCUCGUCAGGAAGACGCACUCAGCCAAGGAUAUUAUGUUUUUAAGAAGGUGGACUUAUGCCAGUGAUGUUGGCAGAUACG [theeternabot_sameState_KL_FMN_A_29]	50.6
AUAAUAUGAGUGAUGUUCAUGAAACCUGAAGGAGCGGACGAAAGUCCAGGUAGGUCGCAGGACUCCUUCAACAUGGGAGAGGGAG [KL-SSArg-A8 #analogue]	153
AAAGACUGACUGCAAUUAGCAGUCAGUCAACGAGGACCGGUACGGCCGCCACUCGGGUCCUAGAGUGAUGUUCUAAUAAUAUAAA [AK1.2 SS Tryptophan A]	374
UGUCAUUGGUCUGAUACCAGUACCCUUGGCAGCCGAGGAGUGAUGUUCCAAGGAUACCAGUACCCUUGGCAGCAGACCGAUGACU [TheoBS 30 #DoubleAptamer #SwitchBubble]	219
UUAGGAGAGGGAAGGAGCGUGAAAGAGAAAGAAUAUAGUGAUGUUAUAUAGAAGAAAGAAUCACAGGUAGGUCGCCCGGAGGAGG [SSArgB.C]	672

Same assay, conditions: Eterna round: R107; input ligand: arginine 13.2 mM

Sequence	apparent KD of K4 kissing-loop reporter [nM]
AAAAGCAGAAAGACGCAUUAAAGAACCGAAGGAGCGCGGAAUUACGCAGGUAGGUCGCGGGAUAAGCGAGUGAUGUUCGCGAAAG [Arginine A Same State; Euphoria Solution]	105
GGAGCAGGUGAAGGAUAUCCCGGGCCAGAGUGAUGUUCUGGAUCCCUUGCCGUUUCUAAACGGGUGGGAGAAGGUCACUGAUAAG [Bibimati]	154
UAUGCUUGUGCUGAUACCAGUGUUAGUGAUGUUAGGACUGUCAGUAGGAUGCGUGCAUUUCACCCUUGGCAGCAGUAUCGCAGCA [theeternabot_exclusion_KL_Theo_B_48]	295
GUUGACAGACUGCAAAACUAGUCAACAGACUAGGAUAUCAGGAAACUGAGAAGGAGUCAAGUUGCAGUGAUGUUGCAAGAAUAAU [KL-SSFMN-A27]	182
AUAGCUGAUAGCAGUGAUGUUGCUUCAGAUACCAGACGAGAUCAUGUCCCUUGGCAGCUGACAUGGCAAGUGCUAGGUUAGAUGA [#11 K4 Theophylline A Exclusion]	114
AACUGUCAAGGACAACAUUACUGCAGUGAUACCAGCAUCGAAAGAUGCCCUUGGCAGCACUAACUUGCAGUGAUGUUGCAAGUAA [BrourdMod 4 - Jieux - Exclusion - Theophylline A]	245
GUUAAUAGUAGUGAUGUUACAAUAGUUUGUGAGGAUAUCCCGAAAGGGAGAAGGCACAAACAAAUAGAUUCUCACAAAUAUUUAC [FMN A exclusion]	185
CGCGUACAGUGUUCUACGGCCGAGAGUGAUACCAGCCGUAUUUGUGGCCCUUGGCAGCGCAGAUGCAGUGAUGUUGCAUACUUGG [Same State Theophylline A GF 21]	139
GCGUGGCAGGCGGCCGCCACUCGGACGAGUCACAGUGAUGUUGUGGUUUGCCAGUCGUCUUCAUCGAGGACCGGGUUUGUUGCGC [Exclusion Tryptophan B GF 18]	169
UUUGGUUUCUCGGCCGCCACUCGUUGGUAAUGGGCCUCAGGGAUAUAGUGAUGUUAUGUAAAGAAGAGGACCGGGAGAAGGAAGG [ExTryptoB.Dn]	229
